From patent US20220089702A1 (PROTHENA BIOSCIENCES, published 2022)
Ends that are not written are not given here.

T1: biotinylated tau peptide spanning amino acids 199-213 of SEQ ID NO:3 (human, also: biotinylated (position not given here))
T1 peptide: KSKIGSTENLKHQPG

B1: mouse monoclonal antibody 6A10 (antibody, mouse IgG1, V domains shown)
VH: EVQLQQSGAELVRSGASVKLSCTASGLNIKDYYIHWVKQRPEQGLEWIGWIDPENDDTEYAPKFQGRATLTTDTSSNTAYLQLSSLTSEDTAVYYCTPLDYWGQGTSVTVSS
VL: not shown
notes: Mouse IgG1/kappa; also called m6A10; murine 6A10
B2: mouse monoclonal antibody 5G8 (antibody, V domains shown)
VH: EVQLQQSGAELVRSGASVRLSCTASGFNIKDYYMHWVRQRPEQGLEWIGWIDPENGDTVYAPKFQGKATMTSDTSSNTAYLHLSSLTSEDTAVYYCSPLDFWGQGTTLTVSS
VL: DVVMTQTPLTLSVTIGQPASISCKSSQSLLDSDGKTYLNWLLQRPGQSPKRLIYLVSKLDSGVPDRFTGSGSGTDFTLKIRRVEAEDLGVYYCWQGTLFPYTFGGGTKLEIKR
notes: Hybridoma-produced mouse antibody; also called m5G8; murine 5G8
B3: mouse monoclonal antibody 8A4 (antibody, mouse IgG1, V domains shown)
VH: EVQLQQSGAELVRPGALVKLSCKASGFNIKDYYIHWVKQRPEQGLEWIGWIDPENGDTVYDPQFQDKANITADTSSNTAYLQLSSLTSEGTAVYYCSTLDFWGQGTTLTVSS
VL: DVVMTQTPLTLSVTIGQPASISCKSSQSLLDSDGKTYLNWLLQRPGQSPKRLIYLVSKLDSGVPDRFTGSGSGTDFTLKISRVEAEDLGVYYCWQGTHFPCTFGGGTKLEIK
notes: Mouse IgG1/kappa; also called m8A4; murine 8A4

Target: T1, biotinylated tau peptide spanning amino …
Test: ELISA, biotinylated peptide on streptavidin plate
Source text: Overlapping biotinylated peptides spanning the length of the 4R0N isoform of tau (383 amino acids) were bound to wells of a streptavidin-coated ELISA plate. The plate was washed and blocked, and murine forms of antibodies 5G8, 6A10, 8A4, 7G6 and 3D6 were applied. After washing, a horseradish peroxidase-conjugated anti-mouse antibody was applied to the plate, followed by treatment with OPD (o-phenylenediamine dihydrochloride) to allow color development. The plate was read at 450 nm absorbance, with background from wells omitting primary antibody used as a blank subtraction. […] These peptides correspond to amino acids 257-271 and 315-329 in the full-length 4R2N human tau protein.

| Binder | binding result |
| --- | --- |
| B1 | binds |
| B2 | binds |
| B3 | binds |
